In article PMC10635575:

How the values were obtained:
[1] = N-glycosylation at N411
[2] = molecular target: CZA97.012 SOSIP.664 trimer (HIV-1, Clade C, clone CZA97.012 (97ZA.012))
[3] = molecular target: CZA97.012 SOSIP.664 trimer (HIV-1, Clade C, clone CZA97.012 (97ZA.012)); assay: SPR
[4] = molecular target: CZA97.012 SOSIP.664 trimer, His-tagged, 2G12-affinity- and then SEC-purified (HIV-1 (Clade C, clone CZA97.012)); assay: SPR
[5] = molecular target: CZA97.012 SOSIP.664 trimer (HIV-1, Clade C, clone CZA97.012 (97ZA.012)); assay: negative-stain electron microscopy; trimer purified by 2G12-, PGT145- or PGT151-affinity chromatography and then SEC, ~0.02 mg/mL, 2% uranyl formate, 2D class averages
[6] = molecular target: CZA97.012 SOSIP.664 trimer (HIV-1, Clade C, clone CZA97.012 (97ZA.012)); assay: cryo-EM structure
[7] = molecular target: CZA97.012 SOSIP.664 trimer (HIV-1, Clade C, clone CZA97.012 (97ZA.012)); remark: listed apart in the source

With “CZA97.012 Env, D411N mutant: D411N (PNGS knock-in) vs parental; neutralization by autologous rabbit serum 2086” the other [1] was “decreases”.

3BNC117 Fab showed an IC50 of neutralization of CZA97.012 pseudovirus (Env on virions) by 3BNC117 IgG, TZM-bl assay [2] of 0.32 µg/mL, a stoichiometry N [3] of 2.8 and a Kd [4] of 15 nM. For the same molecule, the koff [4] was 0.00014 s⁻¹, the kon [4] was 9700 M⁻¹ s⁻¹ and the stoichiometry N [4] was 2.7.

In the case of “CZA97.012 Env, D411N mutant: D411N (PNGS knock-in) vs parental; neutralization by bNAbs”, the other [1] is reported as “no change”.

For “CZA97.012 Env, D411N mutant: D411N (PNGS knock-in) vs parental; neutralization by autologous rabbit sera 2082 and 2084”, the other [1] was “decreases”.

Molecule CZA97.012 SOSIP.664 trimer (complex) has a stoichiometry N [5] of 3 and a stoichiometry N [6] of 3.

B1: PGT145 (antibody, V domains shown)
VH: QVQLVQSGAEVKKPGSSVKVSCKASGNSFSNHDVHWVRQATGQGLEWMGWMSHEGDKTGLAQKFQGRVTITRDSGASTVYMELRGLTADDTAIYYCLTGSKHRLRDYFLYNEYGPNYEEWGDYLATLDVWGHGTAVTVSS
VL: EVVITQSPLFLPVTPGEAASLSCKCSHSLQHSTGANYLAWYLQRPGQTPRLLIHLATHRASGVPDRFSGSGSGTDFTLKISRVESDDVGTYYCMQGLHSPWTFGQGTKVEIK
Work on B1 yielded an IC50 of neutralization of CZA97.012 pseudovirus (Env on virions) by PGT145 IgG, TZM-bl assay [7] of 7.6 µg/mL.
